Assay results taken from patent US20130273073A1 (University of California, published 2013).
Where a chain is given by its changes, count along the chain named.

B1: G3 mouse anti-ROR1 mAb (antibody, V domains shown)
VH: QVQLQQPGAELVKPGTSVKLSCKASGYNFTNYWINWVKLRPGQGLEWIGEIYPGSGSTNYNEKFKSKATLTADTSSSTAYMQLSSLASEDSALYYCARDGNYYAMDYWGQGTSVTVSS
VL: DIQMTQTTSSLSASLGDRVTITCRASQDINNYLNWYQQKPDGTVKLLIYYTSALHSGVPSRFSGSGSGTDYSLTISNLEQEDIATYFCQQGNTLPPYTFGGGTKLEIK
B2: D10 mouse anti-ROR1 mAb (antibody, V domains shown)
VH: QVQLKESGPGLVAPSQTLSITCTVSGFSLTSYGVHWVRQPPGKGLEWLGVIWAGGFTNYNSALKSRLSISKDNSKSQVLLKMTSLQTDDTAMYYCARRGSSYSMDYWGQGTSVTVSS
VL: EIVLSQSPAITAASLGQKVTITCSASSNVSYIHWYQQRSGTSPRPWIYEISKLASGVPVRFSGSGSGTSYSLTISSMEAEDAAIYYCQQWNYPLITFGSGTKLEIQ
notes: also called D10 mAb; anti-ROR1 antibody D10
B3: F2 mouse anti-ROR1 mAb (antibody, V domains shown)
VH: EVQLQQSGPELEKPGASVKISCKASGFAFTGYNMNWVKQTNGKSLEWIGSIDPYYGGSTYNQKFKDKATLTVDKSSSTAYMQLKSLTSDDSAVYYCARSPGGDYAMDYWGQGTSVTVSS
VL: DIKMTQSPSSMYASVGERVTITCKASQGINSYSGWFQQKPGKSPKTLIYRGNRLVDGVPSRFSGSGSGQDYSLTISSLEYEDMGIYYCLQYDEFPYTFGGGTKLEIK
B4: 4A5 mouse anti-ROR1 mAb (antibody, V domains shown)
VH: EVKLVESGGGLVKPGGSLKLSCAASGFTFSSYAMSWVRQIPEKRLEWVASISRGGTTYYPDSVKGRFTISRDNVRNILYLQMSSLRSEDTAMYYCGRYDYDGYYAMDYWGQGTSVTVSS
VL: B3 VL with V15L, Q27P, G28D, S33L, G34S, G51A, S65G, S76N, I106M
notes: also called 4A5 mAb; anti-ROR1 antibody 4A5
B5: F12 mouse anti-ROR1 mAb (antibody, V domains shown)
VH: B3 VH
VL: B3 VL
B6: G11 mouse anti-ROR1 mAb (antibody, V domains shown)
VH: EVKLVESGGGLVKPGGSLKLSCAASGFTFSSYAMSWVRQTPEKRLEWVASISTGASAYFPDSVKGRFTISRDNARNILYLQMSSLRSEDTAMYYCARITTSTWYFDVWGAGTTVTVSS
VL: B3 VL with V15L, G28D, S33L, G34S, G51A
B7: H10 mouse anti-ROR1 mAb (antibody, V domains shown)
VH: B6 VH
VL: B3 VL with V15L, G28D, S33L, G34S, G51A
B8: G6 mouse anti-ROR1 mAb (antibody, V domains shown)
VH: B3 VH
VL: B3 VL

Tests used:
human ROR1 [1] = biological target: T1, human ROR1 (human, UniProt Q01973 30-406); experiment: binding site mapping
T1 construct: The immunogen was the extracellular portion (AA 1-406); also called hROR1; ROR1 protein
Method: (§1) As a second level screen, a series of deletion constructs were generated to determine the actual extracellular ROR1 domain to which the mAbs bind. […] As a final step, the actual amino acids targeted by these antibodies were determined. For this final screen, murinized human amino acids in the sub-domain fragments were generated to determine critical residues required for mAb binding (FIG. 15).

human ROR1 [2] = biological target: T1, human ROR1; experiment: standard techniques, method not stated (FIG. 16A)
[3] = biological target: human ROR1 with the glutamic acid at position 138 replaced with the murine lysine (human, UniProt Q01973 30-406, limits assumed); experiment: murinized residue screen, western blot
Method: as §1

murine ROR1 = biological target: T2, murine ROR1 (murine, UniProt Q9Z139 30-406, limits assumed); experiment: screen for binding to human and murine ROR1
T2 construct: also called mouse ROR1

human ROR1 [4] = biological target: T1, human ROR1; experiment: cross blocking, competitor D10
[5] = biological target: human ROR1 with the isoleucine at position 111 replaced with the murine asparagine (human, UniProt Q01973 30-406, limits assumed); experiment: murinized residue screen, western blot
Method: as §1

human ROR1 [6] = biological target: T1, human ROR1; experiment: standard techniques, method not stated (FIG. 16B)

T1 sequence (Q01973 30-406 limits assumed): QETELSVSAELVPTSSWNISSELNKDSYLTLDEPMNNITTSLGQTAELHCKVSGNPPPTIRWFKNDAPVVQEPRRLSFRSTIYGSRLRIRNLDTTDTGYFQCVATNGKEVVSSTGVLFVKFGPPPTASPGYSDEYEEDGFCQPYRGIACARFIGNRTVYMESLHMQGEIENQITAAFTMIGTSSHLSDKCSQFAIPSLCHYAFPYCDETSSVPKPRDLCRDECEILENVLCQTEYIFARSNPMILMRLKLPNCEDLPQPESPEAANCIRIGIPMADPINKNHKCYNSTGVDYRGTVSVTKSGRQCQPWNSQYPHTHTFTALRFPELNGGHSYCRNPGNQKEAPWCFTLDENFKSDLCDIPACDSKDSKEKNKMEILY
T2 sequence (Q9Z139 30-406 limits assumed): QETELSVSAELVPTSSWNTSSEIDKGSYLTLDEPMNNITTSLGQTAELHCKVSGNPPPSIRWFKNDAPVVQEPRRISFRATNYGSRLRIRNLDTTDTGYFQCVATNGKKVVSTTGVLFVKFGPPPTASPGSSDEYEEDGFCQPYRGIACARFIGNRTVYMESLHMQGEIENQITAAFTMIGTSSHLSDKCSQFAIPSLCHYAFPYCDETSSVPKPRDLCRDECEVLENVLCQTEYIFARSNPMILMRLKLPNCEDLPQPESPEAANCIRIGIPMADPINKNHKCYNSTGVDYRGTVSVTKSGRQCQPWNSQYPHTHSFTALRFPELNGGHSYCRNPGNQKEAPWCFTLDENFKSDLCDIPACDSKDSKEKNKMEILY
Chain of human ROR1 with the isoleucine at position 111 replaced with the murine asparagine (Q01973 30-406 I111N limits assumed): as the sequence (Q01973 30-406 limits assumed) above, with I82N counted along it
Chain of human ROR1 with the glutamic acid at position 138 replaced with the murine lysine (Q01973 30-406 E138K limits assumed): as the sequence (Q01973 30-406 limits assumed) above, with E109K counted along it

Row | Binder | binding result (human ROR1 [1]) | binding result (human ROR1 [4]) | also measured
1 | B1 | binds | – | –
2 | B2 | – | – | Kd (human ROR1 [2]): 40 nM; binding result [3]: no binding; binding result (murine ROR1): no binding
3 | B3 | – | binds | –
4 | B4 | – | – | binding result [5]: no binding; Kd (human ROR1 [6]): 4 nM; binding result (murine ROR1): no binding
5 | B5 | – | binds | –
6 | B6 | binds | – | –
7 | B7 | binds | – | –
8 | B8 | – | binds | –
